We go through three molecules from patent US20250179196A1 (Janssen / Centocor, published 2025).

The term EC50 denotes the concentration at which the effect is half-maximal. High values mean weaker potency, low ones greater potency. Broadly, the Kd is the free concentration of one partner at which half of the binding sites on the other are occupied at equilibrium, for simple one-to-one binding. Usually koff stands for a measure of how fast the partners let go of each other. The kon is the second-order rate constant of association.

Test [1] concerns the target T1, human IL-23R on the cell surface (human, UniProt Q5VWK5 24-629).
T1 construct: whole, on cells; also called cell surface human IL-23R; IL-23R on iLite cells, HEK-IL-23R cells and primary human immune cells
T1 sequence (looked up): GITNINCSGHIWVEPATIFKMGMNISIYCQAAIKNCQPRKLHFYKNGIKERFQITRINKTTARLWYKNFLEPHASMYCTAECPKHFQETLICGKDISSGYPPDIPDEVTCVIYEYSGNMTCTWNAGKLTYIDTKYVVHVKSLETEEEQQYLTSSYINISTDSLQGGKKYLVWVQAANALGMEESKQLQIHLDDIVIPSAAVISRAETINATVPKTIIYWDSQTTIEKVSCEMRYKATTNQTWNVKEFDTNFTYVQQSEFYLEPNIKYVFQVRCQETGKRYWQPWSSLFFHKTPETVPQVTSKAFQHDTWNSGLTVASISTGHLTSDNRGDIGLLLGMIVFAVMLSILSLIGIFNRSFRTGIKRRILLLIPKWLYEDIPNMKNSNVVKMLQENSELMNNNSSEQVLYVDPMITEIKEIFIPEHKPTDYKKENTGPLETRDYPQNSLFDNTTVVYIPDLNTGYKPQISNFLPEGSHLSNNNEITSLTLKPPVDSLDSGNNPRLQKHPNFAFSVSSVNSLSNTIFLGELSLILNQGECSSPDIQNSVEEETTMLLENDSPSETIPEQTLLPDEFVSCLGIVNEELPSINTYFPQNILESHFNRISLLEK
The experiment in a line: flow cytometry, HEK-IL-23R cells (Expt E). On the technique in general: Flow cytometry measures light scatter and fluorescence of single cells or particles in a stream.

In test [2] the target is T2, Recombinant human IL-23 receptor (IL-23R) extracellular domain (ECD) protein (human, UniProt Q5VWK5 24-355).
T2 construct: also called human IL-23R ECD; hu IL-23R ECD
T2 sequence: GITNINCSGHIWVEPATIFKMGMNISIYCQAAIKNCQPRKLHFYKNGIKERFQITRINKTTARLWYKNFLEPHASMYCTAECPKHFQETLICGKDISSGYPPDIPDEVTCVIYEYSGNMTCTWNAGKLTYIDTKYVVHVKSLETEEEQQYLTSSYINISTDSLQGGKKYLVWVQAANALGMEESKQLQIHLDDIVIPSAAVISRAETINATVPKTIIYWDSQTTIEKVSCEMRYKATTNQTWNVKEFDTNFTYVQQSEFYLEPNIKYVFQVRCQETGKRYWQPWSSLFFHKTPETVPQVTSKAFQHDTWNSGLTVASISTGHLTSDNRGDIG
The experiment in a line: SPR Biacore 8K, supernatant, analysis 1. A digest of the protocol:
(§1)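 mAbs captured (~150 RU) on Biacore 8K; human or rat IL-23R ECD injected at 0.8–500 nM (5-fold series) at 25 °C in HBS-P+ with 100 μg/ml BSA. Association 3 min at 50 μL/min, dissociation 30 min. Ka, Kd and KD from Langmuir 1:1 fit.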
A general note: SPR reads the build-up and loss of mass on a sensor chip optically.

In test [3] the target is T2, Recombinant human IL-23 receptor …. Briefly: SPR Biacore 8K, supernatant, analysis 2. A digest of the protocol: as §1
Test [4] addresses T3, rat IL-23R extracellular domain (ECD) protein (rat).
T3 construct: also called rat IL-23R ECD; F1LX96 amino acids 24-354
T3 chain: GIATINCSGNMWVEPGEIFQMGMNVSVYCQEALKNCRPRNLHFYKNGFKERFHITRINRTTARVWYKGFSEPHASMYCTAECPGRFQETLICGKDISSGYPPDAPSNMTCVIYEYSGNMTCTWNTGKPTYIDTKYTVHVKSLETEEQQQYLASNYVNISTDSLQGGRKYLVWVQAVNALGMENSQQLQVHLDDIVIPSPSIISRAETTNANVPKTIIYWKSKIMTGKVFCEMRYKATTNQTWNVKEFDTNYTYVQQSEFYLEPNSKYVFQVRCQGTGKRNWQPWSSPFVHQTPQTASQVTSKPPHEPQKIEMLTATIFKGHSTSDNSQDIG
Briefly: SPR Biacore 8K, supernatant. A digest of the protocol: as §1

B1: I23RB173 (antibody, mouse IgG2a, kappa, V domains shown)
VH: DVQLQESGPGLVKPSQSLSLTCSVTGYSITSGYYWNWIRQFPGNKLEWMGYISYDGGNNYNPSLKNRISITRDTSKNQFFLKLNSVTTEDTATYYCARDAGLLPYYAMDYWGQGTTLTVSS
VL: DIKMTQSPAIMSASPGEKVTITCSASSSVSYMHWFQQKPGTSPKLWIYSTSNLASGVPARFSGSGSGTSYSLTISRMEAEDAATYYCQQRSSYPLTFGDGTKLEMKR
notes: mouse immunization; mouse IgG2a/kappa
Turning to B1, the EC50 in test [1] was at most 9.7 nM. For the same molecule, in test [2], the Kd came to 25.7 nM, the dissociation rate constant (koff) came out at 0.00759 s⁻¹ and the kon is 296000 M⁻¹ s⁻¹. In addition, in test [3], the Kd is 36.1 nM, the off-rate (koff) was determined as 0.0103 s⁻¹ and the kon was determined as 285000 M⁻¹ s⁻¹. Moreover, the binding result in test [4] is “no binding (tested: 500 nM)”.

B2: I23RB71 (antibody, mouse IgG2a, kappa, V domains shown)
VH: DVQLQESGPDLVKPSQSLSLTCTVTDYSITRGYNWHWIRQFPGNKLEWMGYIHYSGSTNYNPSLKSRISITRDTSKNQFFLQLNSVTTEDTATYYCARQYGLKAMDYWGQGTSVTVSS
VL: DIVMTQSHKFMSTSVGDRVSITCKASQDVITAVAWYQQKPGQSPKLLIYSASYRYTGVPDRFTGSGSGTDFTFTISSVQAEDLAVYFCQQHFGTPYTFGSGTKLEMKR
notes: as for B1
For B2, the EC50 in test [1] is at most 9.7 nM. Besides, in test [2], the Kd amounted to 0.328 nM, the koff came to 0.000231 s⁻¹ and the kon turned out to be 704000 M⁻¹ s⁻¹. Moreover, in test [3], the Kd is 0.129 nM, the koff was 4.63e-05 s⁻¹ and the kon amounted to 358000 M⁻¹ s⁻¹. Further, the binding result in test [4] was “no binding (tested: 500 nM)”.

B3: I23RB165 (antibody, mouse IgG2a, kappa, V domains shown)
VH: EVQLQQSGAELVRPGASVKLSCTASGFNIKDSLMHWVKQRPEQGLEWIGWIDPEDGKTKYAPKFQDKATITADTSSNTAYLQLSSLTSEDTAIYYCARREVLDYFDYWGQGTTLTVSS
VL: DIVMTQSPASLAVSLGQRATISCRASKSVSTSGYSYMHWYQQKPGQPPKLLIYLASNLESGVPARFSGSGSGTDFTLNIHPVEEEDAATYYCQHSRELPLTFGAGTKLEMKR
notes: as for B1
As to B3, the EC50 in test [1] is at most 9.7 nM. In test [2], the Kd is 18.1 nM, the koff was determined as 0.00806 s⁻¹ and the kon was 446000 M⁻¹ s⁻¹. For the same molecule, in test [3], the Kd stood at 29.1 nM, the koff is 0.00941 s⁻¹ and the kon was found to be 324000 M⁻¹ s⁻¹. Also, the binding result in test [4] is listed as “no binding (tested: 500 nM)”.
